Common to all, as to assay: cell-based or functional assay
Assay [1] has as its target T1, Aβ42 (UniProt P05067 672-713).
Assay [2] has as its target T1, Aβ42. This is another data set of the same source.
Assay [3] has as its target T2, islet amyloid polypeptide (IAPP) (UniProt P10997 34-70, limits assumed).
T2 peptide (looked up): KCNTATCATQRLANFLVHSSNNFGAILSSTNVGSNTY

Square brackets hold non-standard residues; d marks the D form.

T1 sequence (P05067 672-713 limits assumed): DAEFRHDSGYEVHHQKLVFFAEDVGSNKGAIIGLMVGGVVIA

B1: AP527d (BMOE) (peptide)
peptide: Ac-[dR]G[dE]M[dN]L[dS]W[dM][dN][dE][dY][dY]G[dW]T[dM]N[dM]K[dC]G[dR]-NH2
modifications: also: homodimer linked by BMOE, linker at 21 via BMOE, other end not in the chain
In the case of B1, the “% Inhibition 1:10 (AP peptide:Abeta42), ThT assay” value in the assay with Aβ42 [1] stood at 80%.

B2: AP527d (MalPEG1) (peptide)
peptide: Ac-[dR]G[dE]M[dN]L[dS]W[dM][dN][dE][dY][dY]G[dW]T[dM]N[dM]K[dC]G[dR]-NH2
modifications: also: homodimer linked by MalPEG1, linker at 21 via MalPEG1, other end not in the chain
Regarding B2, in the assay with Aβ42 [1], the “% Inhibition 1:10 (AP peptide:Abeta42), ThT assay” value came out at 75%.

B3: AP523m (peptide)
peptide: Ac-RGE[dC]N[dL]S[dW]M[dN][dE][dY][dY]GW[dT]M[dN]M[dK]MGR-NH2
SMILES: CSCC[C@H](NC(=O)[C@@H](CCCCN)NC(=O)[C@H](CCSC)NC(=O)[C@@H](CC(N)=O)NC(=O)[C@H](CCSC)NC(=O)[C@H](NC(=O)[C@H](Cc1c[nH]c2ccccc12)NC(=O)CNC(=O)[C@@H](Cc1ccc(O)cc1)NC(=O)[C@@H](Cc1ccc(O)cc1)NC(=O)[C@@H](CCC(=O)O)NC(=O)[C@@H](CC(N)=O)NC(=O)[C@H](CCSC)NC(=O)[C@@H](Cc1c[nH]c2ccccc12)NC(=O)[C@H](CO)NC(=O)[C@@H](CC(C)C)NC(=O)[C@H](CC(N)=O)NC(=O)[C@@H](CS)NC(=O)[C@H](CCC(=O)O)NC(=O)CNC(=O)[C@H](CCCNC(=N)N)NC(C)=O)[C@H](C)O)C(=O)NCC(=O)N[C@@H](CCCNC(=N)N)C(N)=O
As to B3, in the assay with Aβ42 [2], the “% inhibition of fibril formation (ThT), AP:Aβ42 1:1” value worked out at 49%; the “% inhibition of fibril formation (ThT), AP:Aβ42 1:10” value turned out to be 9%; the “% inhibition of fibril formation (ThT), AP:Aβ42 1:100” value (from here on “% inhibition … AP:Aβ42 1:100”) was 0%.

B4: AP523d (peptide)
peptide: Ac-RGE[dC]N[dL]S[dW]M[dN][dE][dY][dY]GW[dT]M[dN]M[dK]MGR-NH2
modifications: also: disulfide-linked homodimer (Cys4 to Cys4 of other copy), disulfide at 4, other end not in the chain
Take B4: in the assay with Aβ42 [2], the “% inhibition of fibril formation (ThT), AP:Aβ42 1:1” value worked out at 100%; the “% inhibition of fibril formation (ThT), AP:Aβ42 1:10” value is 87.3%; the “% inhibition … AP:Aβ42 1:100” value worked out at 40.3%.

In the case of Ac-[dR]G[dE]M[dN]L[dS]W[dM][dN][dE][dY][dY]G[dW]T[dM]N[dM]K[dC]G[dR]-NH2 (also: homodimer: D-Cys21 disulfide-bonded to D-Cys21 of other copy) [AP527d], the “% Inhibition 1:10 (AP peptide:Abeta42), ThT assay” value in the assay with Aβ42 [1] is 96%. In the assay with Aβ42 [2], the “% inhibition of fibril formation (ThT), AP:Aβ42 1:1” value came out at 100%; the “% inhibition of fibril formation (ThT), AP:Aβ42 1:10” value came to 96.2%; the “% inhibition … AP:Aβ42 1:100” value came out at 86.4%.

B5: AP090 (peptide)
peptide: Ac-RGE[dM]N[dL]S[dW]MNEYSGW[dT]M[dN]L[dK]MGR-NH2
SMILES: CSCC[C@H](NC(=O)[C@@H](CCCCN)NC(=O)[C@H](CC(C)C)NC(=O)[C@@H](CC(N)=O)NC(=O)[C@H](CCSC)NC(=O)[C@H](NC(=O)[C@H](Cc1c[nH]c2ccccc12)NC(=O)CNC(=O)[C@H](CO)NC(=O)[C@H](Cc1ccc(O)cc1)NC(=O)[C@H](CCC(=O)O)NC(=O)[C@H](CC(N)=O)NC(=O)[C@H](CCSC)NC(=O)[C@@H](Cc1c[nH]c2ccccc12)NC(=O)[C@H](CO)NC(=O)[C@@H](CC(C)C)NC(=O)[C@H](CC(N)=O)NC(=O)[C@@H](CCSC)NC(=O)[C@H](CCC(=O)O)NC(=O)CNC(=O)[C@H](CCCNC(=N)N)NC(C)=O)[C@H](C)O)C(=O)NCC(=O)N[C@@H](CCCNC(=N)N)C(N)=O
Regarding B5, in the assay with Aβ42 [2], the “% inhibition of fibril formation (ThT), AP:Aβ42 1:1” value amounted to 69.7% and the “% inhibition of fibril formation (ThT), AP:Aβ42 1:10” value was determined as 0%. Also, in assay [3], the “% inhibition of IAPP amyloid formation, Ratio AP:IAPP 1:1” value is 40%; the “% inhibition of IAPP amyloid formation, Ratio AP:IAPP 4:1” value was found to be 42%; the “% inhibition of IAPP amyloid formation, Ratio AP:IAPP 10:1” value is 65%.

B6: AP527m (peptide)
peptide: Ac-[dR]G[dE]M[dN]L[dS]W[dM][dN][dE][dY][dY]G[dW]T[dM]N[dM]K[dC]G[dR]-NH2
SMILES: CSCC[C@H](NC(=O)[C@@H](CCC(=O)O)NC(=O)CNC(=O)[C@@H](CCCNC(=N)N)NC(C)=O)C(=O)N[C@H](CC(N)=O)C(=O)N[C@@H](CC(C)C)C(=O)N[C@H](CO)C(=O)N[C@@H](Cc1c[nH]c2ccccc12)C(=O)N[C@H](CCSC)C(=O)N[C@H](CC(N)=O)C(=O)N[C@H](CCC(=O)O)C(=O)N[C@H](Cc1ccc(O)cc1)C(=O)N[C@H](Cc1ccc(O)cc1)C(=O)NCC(=O)N[C@H](Cc1c[nH]c2ccccc12)C(=O)N[C@H](C(=O)N[C@H](CCSC)C(=O)N[C@@H](CC(N)=O)C(=O)N[C@H](CCSC)C(=O)N[C@@H](CCCCN)C(=O)N[C@H](CS)C(=O)NCC(=O)N[C@H](CCCNC(=N)N)C(N)=O)[C@@H](C)O
As for B6, the “% Inhibition 1:10 (AP peptide:Abeta42), ThT assay” value in the assay with Aβ42 [1] came out at 14%. In the assay with Aβ42 [2], the “% inhibition of fibril formation (ThT), AP:Aβ42 1:1” value came out at 54.2%; the “% inhibition of fibril formation (ThT), AP:Aβ42 1:10” value worked out at 14.3%; the “% inhibition … AP:Aβ42 1:100” value was 0%.

B7: AP524m (peptide)
peptide: Ac-RCE[dM]N[dL]S[dW]M[dN][dE][dY][dY]GW[dT]M[dN]M[dK]MGR-NH2
SMILES: CSCC[C@H](NC(=O)[C@@H](CCCCN)NC(=O)[C@H](CCSC)NC(=O)[C@@H](CC(N)=O)NC(=O)[C@H](CCSC)NC(=O)[C@H](NC(=O)[C@H](Cc1c[nH]c2ccccc12)NC(=O)CNC(=O)[C@@H](Cc1ccc(O)cc1)NC(=O)[C@@H](Cc1ccc(O)cc1)NC(=O)[C@@H](CCC(=O)O)NC(=O)[C@@H](CC(N)=O)NC(=O)[C@H](CCSC)NC(=O)[C@@H](Cc1c[nH]c2ccccc12)NC(=O)[C@H](CO)NC(=O)[C@@H](CC(C)C)NC(=O)[C@H](CC(N)=O)NC(=O)[C@@H](CCSC)NC(=O)[C@H](CCC(=O)O)NC(=O)[C@H](CS)NC(=O)[C@H](CCCNC(=N)N)NC(C)=O)[C@H](C)O)C(=O)NCC(=O)N[C@@H](CCCNC(=N)N)C(N)=O
As to B7, in the assay with Aβ42 [2], the “% inhibition of fibril formation (ThT), AP:Aβ42 1:1” value is 45.8%; the “% inhibition of fibril formation (ThT), AP:Aβ42 1:10” value came out at 7.2%; the “% inhibition … AP:Aβ42 1:100” value was found to be 0%.

Ac-RCE[dM]N[dL]S[dW]M[dN][dE][dY][dY]GW[dT]M[dN]M[dK]MGR-NH2 (also: disulfide-linked homodimer via Cys2) [AP524d]: in the assay with Aβ42 [2], the “% inhibition of fibril formation (ThT), AP:Aβ42 1:1” value worked out at 100%; the “% inhibition of fibril formation (ThT), AP:Aβ42 1:10” value stood at 86.1%; the “% inhibition … AP:Aβ42 1:100” value was 43.1%.

Turning to Ac-RGE[dM]N[dL]S[dW]M[dN][dE][dY][dY]GW[dT]M[dN]M[dK]CGR-NH2 (also: homodimer: Cys21 disulfide-bonded to Cys21 of other copy) [AP525d], in the assay with Aβ42 [2], the “% inhibition of fibril formation (ThT), AP:Aβ42 1:1” value amounted to 99.7%; the “% inhibition of fibril formation (ThT), AP:Aβ42 1:10” value was 98.3%; the “% inhibition … AP:Aβ42 1:100” value was determined as 89.2%.

B8: AP525m (peptide)
peptide: Ac-RGE[dM]N[dL]S[dW]M[dN][dE][dY][dY]GW[dT]M[dN]M[dK]CGR-NH2
SMILES: CSCC[C@H](NC(=O)[C@@H](CC(N)=O)NC(=O)[C@H](CCSC)NC(=O)[C@H](NC(=O)[C@H](Cc1c[nH]c2ccccc12)NC(=O)CNC(=O)[C@@H](Cc1ccc(O)cc1)NC(=O)[C@@H](Cc1ccc(O)cc1)NC(=O)[C@@H](CCC(=O)O)NC(=O)[C@@H](CC(N)=O)NC(=O)[C@H](CCSC)NC(=O)[C@@H](Cc1c[nH]c2ccccc12)NC(=O)[C@H](CO)NC(=O)[C@@H](CC(C)C)NC(=O)[C@H](CC(N)=O)NC(=O)[C@@H](CCSC)NC(=O)[C@H](CCC(=O)O)NC(=O)CNC(=O)[C@H](CCCNC(=N)N)NC(C)=O)[C@H](C)O)C(=O)N[C@H](CCCCN)C(=O)N[C@@H](CS)C(=O)NCC(=O)N[C@@H](CCCNC(=N)N)C(N)=O
Take B8: in the assay with Aβ42 [2], the “% inhibition of fibril formation (ThT), AP:Aβ42 1:1” value was found to be 53.5%; the “% inhibition of fibril formation (ThT), AP:Aβ42 1:10” value was 12.1%; the “% inhibition … AP:Aβ42 1:100” value was determined as 0%.

B9: AP526m (peptide)
peptide: Ac-[dR]G[dE]M[dN]L[dS]W[dM][dN][dE][dY][dS]G[dW]T[dM]N[dC]K[dM]G[dR]-NH2
SMILES: CSCC[C@H](NC(=O)[C@@H](CCC(=O)O)NC(=O)CNC(=O)[C@@H](CCCNC(=N)N)NC(C)=O)C(=O)N[C@H](CC(N)=O)C(=O)N[C@@H](CC(C)C)C(=O)N[C@H](CO)C(=O)N[C@@H](Cc1c[nH]c2ccccc12)C(=O)N[C@H](CCSC)C(=O)N[C@H](CC(N)=O)C(=O)N[C@H](CCC(=O)O)C(=O)N[C@H](Cc1ccc(O)cc1)C(=O)N[C@H](CO)C(=O)NCC(=O)N[C@H](Cc1c[nH]c2ccccc12)C(=O)N[C@H](C(=O)N[C@H](CCSC)C(=O)N[C@@H](CC(N)=O)C(=O)N[C@H](CS)C(=O)N[C@@H](CCCCN)C(=O)N[C@H](CCSC)C(=O)NCC(=O)N[C@H](CCCNC(=N)N)C(N)=O)[C@@H](C)O
Consider B9, for which, in the assay with Aβ42 [2], the “% inhibition of fibril formation (ThT), AP:Aβ42 1:1” value came out at 63.2%; the “% inhibition of fibril formation (ThT), AP:Aβ42 1:10” value amounted to 12.4%; the “% inhibition … AP:Aβ42 1:100” value amounted to 0%.

Values taken from patent publication US20230048960A1 (University of Washington, published 2023).
